This is an account of results in patent EP4755449A2 (CHUGAI SEIYAKU KABUSHIKI KAISHA, dated 2026).

Substitutions are numbered along the chain they refer to. Names and notes keep the numbering of the source.

In assay [1] the target is T1, mouse latent myostatin (mouse, UniProt O08689 26-267; O08689 268-376).
T1 sequence 1: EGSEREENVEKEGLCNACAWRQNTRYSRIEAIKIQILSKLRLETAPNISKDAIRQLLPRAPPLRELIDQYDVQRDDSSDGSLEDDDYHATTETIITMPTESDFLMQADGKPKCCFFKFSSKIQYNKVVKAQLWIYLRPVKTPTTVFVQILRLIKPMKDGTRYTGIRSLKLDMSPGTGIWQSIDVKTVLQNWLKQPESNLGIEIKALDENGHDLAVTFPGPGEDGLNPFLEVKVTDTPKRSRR
T1 sequence 2: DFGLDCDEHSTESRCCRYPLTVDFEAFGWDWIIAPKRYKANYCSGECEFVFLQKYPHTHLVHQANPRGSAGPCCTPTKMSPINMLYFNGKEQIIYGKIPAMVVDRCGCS
The experiment in a line: SPR affinity condition pH5.8 37C; pH 5.8.

The target in assay [2] is T2, human latent myostatin (human, UniProt O14793 25-266; O14793 267-375).
T2 construct: non-covalent complex of two propeptides and the mature homodimer; also called human myostatin latent form
T2 sequence 1: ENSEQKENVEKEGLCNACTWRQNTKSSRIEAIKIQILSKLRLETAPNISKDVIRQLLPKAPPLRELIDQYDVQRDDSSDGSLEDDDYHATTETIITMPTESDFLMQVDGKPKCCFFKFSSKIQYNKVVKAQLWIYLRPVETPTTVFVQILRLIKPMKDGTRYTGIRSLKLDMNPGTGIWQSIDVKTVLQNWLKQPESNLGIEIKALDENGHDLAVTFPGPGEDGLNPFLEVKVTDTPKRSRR
T2 sequence 2: T1 sequence 2
Put plainly: SPR affinity condition pH5.8 37C; pH 5.8.

Assay [3] addresses T3, cynomolgus monkey latent myostatin (cynomolgus monkey, UniProt Q95J86 25-266; Q95J86 267-375, limits assumed).
T3 construct: also called cyno latent myostatin
T3 sequence 1: T2 sequence 1 with V52A
T3 sequence 2: T1 sequence 2
Put plainly: SPR affinity condition pH5.8 37C; pH 5.8.

Assay [4] concerns the target T1, mouse latent myostatin. Put plainly: SPR affinity condition pH7.4 37C; pH 7.4.
The target in assay [5] is T2, human latent myostatin. The experiment in a line: SPR affinity condition pH7.4 37C; pH 7.4.
The target of assay [6] is T3, cynomolgus monkey latent myostatin. The experiment in a line: SPR affinity condition pH7.4 37C; pH 7.4.
Assay [7] concerns the target T2, human latent myostatin. Put plainly: SPR, dissociation phase at pH5.8.
In assay [8] the target is T2, human latent myostatin. Put plainly: SPR 37C pH7.4.
Assay [9] addresses T1, mouse latent myostatin. The experiment in a line: SPR avidity condition pH7.4 37C; pH 7.4.
The target in assay [10] is T2, human latent myostatin. The experiment in a line: SPR avidity condition pH7.4 37C; pH 7.4.
For assay [11], the target named is T3, cynomolgus monkey latent myostatin. Put plainly: SPR avidity condition pH7.4 37C; pH 7.4.
The target of assay [12] is T1, mouse latent myostatin. The experiment in a line: SPR avidity condition pH5.8 37C; pH 5.8.
The target in assay [13] is T2, human latent myostatin. The experiment in a line: SPR avidity condition pH5.8 37C; pH 5.8.
Assay [14] has as its target T3, cynomolgus monkey latent myostatin. Put plainly: SPR avidity condition pH5.8 37C; pH 5.8.
The target of assay [15] is T1, mouse latent myostatin. The experiment in a line: SPR affinity condition pH7.4 37C.
Assay [16] concerns the target T2, human latent myostatin. Put plainly: SPR affinity condition pH7.4 37C.
Assay [17] deals with T3, cynomolgus monkey latent myostatin. The experiment in a line: SPR affinity condition pH7.4 37C.
Assay [18] concerns the target T4, human Fc gamma RIIIaV extracellular domain, His-tagged (human, UniProt P08637 17-208).
T4 construct: also called FcgRIIIaV
Put plainly: SPR 25C.

Assay [19] has as its target T5, human Fc gamma RIIb extracellular domain, His-tagged (human, UniProt P31994 43-217).
T5 construct: also called FcgRIIb
T5 sequence: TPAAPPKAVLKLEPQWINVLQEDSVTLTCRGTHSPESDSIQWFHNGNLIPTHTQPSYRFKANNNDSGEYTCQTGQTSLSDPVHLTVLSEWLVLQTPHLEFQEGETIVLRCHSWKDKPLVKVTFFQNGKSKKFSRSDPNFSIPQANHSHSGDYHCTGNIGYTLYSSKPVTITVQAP
Put plainly: SPR 25C, antigen-antibody complex injected over captured His-tagged receptor.

T4 sequence (P08637 17-208 F176V): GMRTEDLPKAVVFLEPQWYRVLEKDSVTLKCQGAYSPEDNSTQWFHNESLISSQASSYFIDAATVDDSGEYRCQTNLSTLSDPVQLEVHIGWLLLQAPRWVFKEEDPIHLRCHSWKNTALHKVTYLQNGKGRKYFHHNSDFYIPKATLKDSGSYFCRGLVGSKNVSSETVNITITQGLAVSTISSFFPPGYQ

B1: MS_M103205H000-SG1/M103202L000-SK1 (antibody, human IgG1, kappa, V domains shown)
VH: QVTLKESGPVLVKPTETLTLTCTVSGIDLSSYDISWVRQAPGKGLEWVGIISYAGSTYYASWAKGRLTISKDTSKNQVVLTMTNMDPVDTATYYCARGVPAYSTGGDLWGQGTLVTVSS
VL: DIVMTQSPATLSLSPGERATLSCQSSQSVYDNNWLSWFQQKPGQPPKLLIYWASTLASGVPSRFSGSGSGTDFTLTISSLQPEDAATYYCAGGYGGGLYAFGQGTKVEIKR
notes: humanized; also called MS1032LO00-SG1; Ab001
On to B1, for which the Kd in [1] worked out at 0.0438 nM; in [2] it was 0.215 nM; in assay [3], 0.139 nM; in assay [4], 0.122 nM; in [5], 0.23 nM; in assay [6] it was 0.209 nM. Further, the Kd in [8] came out at 0.075 nM; in [9], 0.0471 nM; in assay [10], 0.075 nM; in [11], 0.0666 nM; in [12] it was 0.0087 nM; in [13], 0.0797 nM. Also, the Kd in [14] is 0.00883 nM. Further, the koff was found to be 7.08e-05 s⁻¹ in [1]; 0.000235 s⁻¹ in assay [2]; 0.000196 s⁻¹ in assay [3]; 0.00016 s⁻¹ in assay [4]; 0.000245 s⁻¹ in assay [5]; 0.000213 s⁻¹ in assay [6]. Also, the koff in [7] is 2.92e-05 s⁻¹; in [8], 9.52e-05 s⁻¹; in [9], 7.18e-05 s⁻¹; in assay [10], 9.52e-05 s⁻¹; in assay [11], 8.08e-05 s⁻¹; in [12] it was 2.02e-05 s⁻¹. Besides, the koff in assay [13] turned out to be 0.000128 s⁻¹; in [14], 1.58e-05 s⁻¹. Further, the kon in assay [1] was 1.62e+06 M⁻¹ s⁻¹; in [2], 1.09e+06 M⁻¹ s⁻¹; in assay [3] it was 1.41e+06 M⁻¹ s⁻¹; in [4], 1.31e+06 M⁻¹ s⁻¹; in [5] it was 1.07e+06 M⁻¹ s⁻¹; in assay [6], 1.02e+06 M⁻¹ s⁻¹. Moreover, the kon in assay [8] is 1.27e+06 M⁻¹ s⁻¹; in assay [9], 1.52e+06 M⁻¹ s⁻¹; in [10], 1.27e+06 M⁻¹ s⁻¹; in assay [11] it was 1.21e+06 M⁻¹ s⁻¹; in assay [12] it was 2.32e+06 M⁻¹ s⁻¹; in assay [13], 1.6e+06 M⁻¹ s⁻¹. The same molecule displayed a kon in assay [14] of 1.79e+06 M⁻¹ s⁻¹.

B2: Ab003 (M103205H009/M103202L000) (antibody, V domains shown)
VH: B1 VH with Y53H
VL: B1 VL
notes: variant of MS1032LO00-SG1
As to B2, the koff in [7] was determined as 0.00088 s⁻¹.

B3: Ab006 (M103205H000/M103202L008) (antibody, V domains shown)
VH: B1 VH
VL: B1 VL with D31H
notes: variant of MS1032LO00-SG1
B3 displayed a koff in assay [7] of 8.58e-05 s⁻¹.

B4: Ab004 (M103205H026/M103202L000) (antibody, V domains shown)
VH: B1 VH with Y102H
VL: B1 VL
notes: variant of MS1032LO00-SG1
B4 came in with a koff in assay [7] of 0.000186 s⁻¹.

B5: Ab007 (M103205H028/M103202L008) (antibody, V domains shown)
VH: B1 VH with T104H
VL: B1 VL with D31H
notes: variant of MS1032LO00-SG1
In assay [7], B5 yielded a koff of 0.000415 s⁻¹.

B6: MS_M103205H714-SG1/M103202L861-SK1 (antibody, human IgG1, kappa, V domains shown)
VH: B1 VH with S31H, Y32T, T104H
VL: B1 VL with Q24T, D31H, S58Y, L98R
notes: also called MS1032LO01-SG1
In the case of B6, the Kd amounted to 0.149 nM in assay [9]; 0.165 nM in [11]; 0.713 nM in [15]; 0.788 nM in assay [16]; 0.954 nM in assay [17]; 6.15 nM in assay [12]. Moreover, the figures for the Kd in assay [13] and in [14] were 19.5 nM and 8.9 nM, respectively. Besides, the koff amounted to 0.000217 s⁻¹ in assay [9]; 0.000197 s⁻¹ in assay [11]; 0.00107 s⁻¹ in [15]; 0.00129 s⁻¹ in assay [16]; 0.0011 s⁻¹ in assay [17]; 0.00625 s⁻¹ in [12]. The koff in assay [13] is 0.0242 s⁻¹; in assay [14], 0.0068 s⁻¹. The kon is 1.45e+06 M⁻¹ s⁻¹ in assay [9]; 1.19e+06 M⁻¹ s⁻¹ in assay [11]; 1.5e+06 M⁻¹ s⁻¹ in assay [15]; 1.64e+06 M⁻¹ s⁻¹ in assay [16]; 1.15e+06 M⁻¹ s⁻¹ in assay [17]; 1.02e+06 M⁻¹ s⁻¹ in assay [12]. Moreover, the kon in assay [13] is 1.22e+06 M⁻¹ s⁻¹; in [14], 764000 M⁻¹ s⁻¹.

B7: Ab005 (M103205H028/M103202L000) (antibody, V domains shown)
VH: B1 VH with T104H
VL: B1 VL
notes: variant of MS1032LO00-SG1
For the molecule B7, the koff in [7] is 7.63e-05 s⁻¹.

B8: GpH7-B3 G237Y/GpL16-k0 (antibody, human IgG1, kappa)
heavy: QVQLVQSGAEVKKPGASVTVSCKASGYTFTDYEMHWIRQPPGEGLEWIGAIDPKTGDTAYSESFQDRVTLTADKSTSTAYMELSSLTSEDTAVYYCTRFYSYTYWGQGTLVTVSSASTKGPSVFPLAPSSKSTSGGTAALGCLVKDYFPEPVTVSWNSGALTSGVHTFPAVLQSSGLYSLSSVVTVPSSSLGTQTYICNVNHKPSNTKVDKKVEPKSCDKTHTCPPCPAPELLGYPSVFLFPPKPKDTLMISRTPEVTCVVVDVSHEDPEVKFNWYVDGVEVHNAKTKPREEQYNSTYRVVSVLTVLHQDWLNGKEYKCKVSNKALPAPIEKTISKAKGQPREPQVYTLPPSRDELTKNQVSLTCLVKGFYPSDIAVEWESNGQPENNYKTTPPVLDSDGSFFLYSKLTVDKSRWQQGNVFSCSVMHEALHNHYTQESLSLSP
light: DIVMTQSPLSLPVTPGEPASISCQASESLVHSNRNTYLHWYLQKPGQSPQLLIYKVSNRFSGVPDRFSGSGSGTDFTLKISRVEAEDVGVYYCSQNTHVPPTFGQGTKVEIERTVAAPSVFIFPPSDEQLKSGTASVVCLLNNFYPREAKVQWKVDNALQSGNSQESVTEQDSKDSTYSLSSTLTLSKADYEKHKVYACEVTHQGLSSPVTKSFNRGEC
notes: copies: 2 + 2
In assay [18], B8 gave a relative binding of 0 parent B3=100.

B9: GpH7-B3 N325L/GpL16-k0 (antibody, human IgG1, kappa)
heavy: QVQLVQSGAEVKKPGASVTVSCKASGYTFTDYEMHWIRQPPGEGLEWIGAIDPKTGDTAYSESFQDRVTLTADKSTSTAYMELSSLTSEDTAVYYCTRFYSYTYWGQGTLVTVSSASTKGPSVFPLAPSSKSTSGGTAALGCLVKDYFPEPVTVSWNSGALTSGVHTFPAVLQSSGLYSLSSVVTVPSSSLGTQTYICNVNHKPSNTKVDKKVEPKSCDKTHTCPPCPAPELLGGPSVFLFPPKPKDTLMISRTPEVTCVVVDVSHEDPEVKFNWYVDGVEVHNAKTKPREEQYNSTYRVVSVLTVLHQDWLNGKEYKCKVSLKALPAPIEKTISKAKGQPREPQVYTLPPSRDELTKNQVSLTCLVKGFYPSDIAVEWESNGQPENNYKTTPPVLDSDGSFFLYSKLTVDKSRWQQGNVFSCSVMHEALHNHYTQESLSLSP
light: B8 light
notes: copies: 2 + 2
Molecule B9 showed a relative binding in assay [18] of 0 parent B3=100.

B10: MS1032LO06-P1499m (antibody, human IgG1, kappa)
heavy: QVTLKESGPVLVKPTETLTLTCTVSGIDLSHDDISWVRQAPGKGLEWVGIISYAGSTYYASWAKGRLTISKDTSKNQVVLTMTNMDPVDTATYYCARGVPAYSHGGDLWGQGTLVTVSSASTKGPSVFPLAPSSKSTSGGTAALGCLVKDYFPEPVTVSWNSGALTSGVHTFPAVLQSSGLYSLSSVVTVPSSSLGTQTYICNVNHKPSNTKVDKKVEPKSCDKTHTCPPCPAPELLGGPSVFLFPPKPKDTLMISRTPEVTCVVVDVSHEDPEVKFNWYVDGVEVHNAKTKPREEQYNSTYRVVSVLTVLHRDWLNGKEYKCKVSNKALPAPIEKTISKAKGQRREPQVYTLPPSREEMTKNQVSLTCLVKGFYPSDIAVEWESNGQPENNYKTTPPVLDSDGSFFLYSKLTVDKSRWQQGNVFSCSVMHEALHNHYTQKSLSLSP
light: DIVMTQSPATLSLSPGERATLSCTSSQSVYHANWLSWFQQKPGQPPKLLIYWASTLAYGVPSRFSGSGSGTDFTLTISSLQPEDAATYYCAGGYGGGRYAFGQGTKVEIKRTVAAPSVFIFPPSDEQLKSGTASVVCLLNNFYPREAKVQWKVDNALQSGNSQESVTEQDSKDSTYSLSSTLTLSKADYEKHKVYACEVTHQGLSSPVTKSFNRGEC
For the molecule B10, in assay [19], the binding result was “binds”.

B11: MS103205H795-SG141/M103202L889-SK1 (antibody, human IgG1, kappa)
heavy: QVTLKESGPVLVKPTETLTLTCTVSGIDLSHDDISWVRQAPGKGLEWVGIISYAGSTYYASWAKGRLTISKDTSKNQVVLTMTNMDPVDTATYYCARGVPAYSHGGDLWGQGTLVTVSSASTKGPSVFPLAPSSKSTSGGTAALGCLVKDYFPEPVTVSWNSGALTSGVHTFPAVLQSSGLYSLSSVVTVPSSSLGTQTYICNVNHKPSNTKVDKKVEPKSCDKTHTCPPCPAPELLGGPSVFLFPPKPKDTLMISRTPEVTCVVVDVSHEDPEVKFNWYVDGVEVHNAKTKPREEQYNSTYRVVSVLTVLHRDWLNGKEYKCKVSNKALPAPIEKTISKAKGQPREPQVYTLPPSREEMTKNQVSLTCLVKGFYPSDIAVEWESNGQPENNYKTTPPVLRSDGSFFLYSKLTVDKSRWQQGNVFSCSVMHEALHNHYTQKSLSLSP
light: B10 light
notes: copies: 2 + 2
B11: the binding result in assay [19] was “binds”.

B12: MS1032LO06-P1540m (antibody, human IgG1, kappa)
heavy: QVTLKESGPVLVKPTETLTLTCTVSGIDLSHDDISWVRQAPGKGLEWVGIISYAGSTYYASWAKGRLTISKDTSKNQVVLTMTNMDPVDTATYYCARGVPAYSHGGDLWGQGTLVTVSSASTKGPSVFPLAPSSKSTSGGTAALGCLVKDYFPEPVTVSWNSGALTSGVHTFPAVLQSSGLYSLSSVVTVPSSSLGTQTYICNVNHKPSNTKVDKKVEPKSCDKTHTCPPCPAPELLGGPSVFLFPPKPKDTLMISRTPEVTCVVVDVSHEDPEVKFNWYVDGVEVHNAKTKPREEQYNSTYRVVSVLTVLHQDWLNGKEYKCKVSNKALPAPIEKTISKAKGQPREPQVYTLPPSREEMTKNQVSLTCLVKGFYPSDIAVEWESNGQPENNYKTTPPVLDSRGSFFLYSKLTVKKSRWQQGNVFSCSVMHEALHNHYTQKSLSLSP
light: B10 light
notes: copies: 2 + 2
Turning to B12, the binding result in [19] is given as “binds”.

The koff is the first-order rate constant of dissociation. Usually kon stands for a measure of how fast the partners come together.
